In one assay the target is T1, GST-tagged p65 (UniProt Q04206 1-551).
T1 construct: NF-κB p65 (RelA); also called GST-p65; source: E. coli BL21 (DE3), purified
Nature of the assay: pull-down; GST pull-down: purified GST-tagged protein (or GST) mixed with His-tagged protein, both expressed in E. coli BL21 (DE3). Particulars: both partners purified.

Another assay deals with T2, GST-tagged FBP1 (UniProt P09467 1-338).
T2 construct: fructose-1,6-bisphosphatase 1 (FBP1); also called GST-FBP1; source: E. coli BL21 (DE3), purified
T2 sequence (looked up): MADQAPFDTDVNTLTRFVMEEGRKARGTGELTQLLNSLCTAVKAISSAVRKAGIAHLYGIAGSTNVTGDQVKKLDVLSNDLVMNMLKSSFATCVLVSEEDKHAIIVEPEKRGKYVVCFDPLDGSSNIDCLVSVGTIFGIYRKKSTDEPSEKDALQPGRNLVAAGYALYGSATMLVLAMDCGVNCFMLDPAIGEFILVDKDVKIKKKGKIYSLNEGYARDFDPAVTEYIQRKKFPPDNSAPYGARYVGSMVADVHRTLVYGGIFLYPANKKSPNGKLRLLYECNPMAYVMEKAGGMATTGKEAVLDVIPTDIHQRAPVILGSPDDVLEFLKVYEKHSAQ
Described as above. Particulars: both partners purified.

T1 sequence (Q04206 whole entry): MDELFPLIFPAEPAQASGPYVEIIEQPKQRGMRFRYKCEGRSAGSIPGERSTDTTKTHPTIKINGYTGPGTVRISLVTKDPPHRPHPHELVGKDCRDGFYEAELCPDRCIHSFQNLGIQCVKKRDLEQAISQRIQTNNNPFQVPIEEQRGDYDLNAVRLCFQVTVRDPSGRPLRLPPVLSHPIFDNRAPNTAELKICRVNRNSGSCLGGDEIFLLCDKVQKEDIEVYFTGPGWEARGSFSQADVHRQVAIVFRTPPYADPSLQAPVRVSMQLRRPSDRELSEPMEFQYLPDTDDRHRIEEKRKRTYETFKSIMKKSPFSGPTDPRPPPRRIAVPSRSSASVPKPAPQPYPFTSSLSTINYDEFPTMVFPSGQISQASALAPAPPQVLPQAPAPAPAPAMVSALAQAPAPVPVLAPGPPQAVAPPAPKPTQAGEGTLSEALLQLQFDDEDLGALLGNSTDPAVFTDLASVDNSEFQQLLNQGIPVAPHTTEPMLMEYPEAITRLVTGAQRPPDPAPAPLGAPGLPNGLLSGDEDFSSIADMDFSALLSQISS

B1: His-tagged FBP1 (enzyme, UniProt P09467 1-338, looked up)
chain: MADQAPFDTDVNTLTRFVMEEGRKARGTGELTQLLNSLCTAVKAISSAVRKAGIAHLYGIAGSTNVTGDQVKKLDVLSNDLVMNMLKSSFATCVLVSEEDKHAIIVEPEKRGKYVVCFDPLDGSSNIDCLVSVGTIFGIYRKKSTDEPSEKDALQPGRNLVAAGYALYGSATMLVLAMDCGVNCFMLDPAIGEFILVDKDVKIKKKGKIYSLNEGYARDFDPAVTEYIQRKKFPPDNSAPYGARYVGSMVADVHRTLVYGGIFLYPANKKSPNGKLRLLYECNPMAYVMEKAGGMATTGKEAVLDVIPTDIHQRAPVILGSPDDVLEFLKVYEKHSAQ
notes: fructose-1,6-bisphosphatase 1 (FBP1); also called His-FBP1; source: E. coli BL21 (DE3)
For the molecule B1, the binding result with GST-tagged p65 is recorded as “binds”.

B2: His-tagged PIM2 (enzyme)
chain: not shown
notes: serine/threonine kinase PIM2; also called His-PIM2; source: E. coli BL21 (DE3), purified
For the molecule B2, in the assay with GST-tagged FBP1, the binding result is “binds”.

(Values after paper PMC7392005, “Fructose-1, 6-bisphosphatase 1 interacts with NF-κB p65 to regulate breast tumorigenesis via PIM2 induced phosphorylation” (Theranostics, 2020).)
